Reference: patent US20020137891A1, “Protein scaffold and its use to multimerise monomeric polypeptides” (priority 1999, published 2002)

What was measured:
[1] = target: T1, pig heart mitochondrial malate dehydrogenase (mtMDH) (Sus scrofa, UniProt P00346); test: In vitro refolding and aggregation protection of heat- and dithiothreitol-denatured mtMDH; type: biochemical; conditions: reactivation at 25° C., chaperone alone, FIG. 7b
T1 construct: pig heart mitochondrial malate dehydrogenase (mtMDH; Boehringer-Mannheim); purchased Boehringer-Mannheim; host or cells: pig heart
T1 sequence (P00346 25-338): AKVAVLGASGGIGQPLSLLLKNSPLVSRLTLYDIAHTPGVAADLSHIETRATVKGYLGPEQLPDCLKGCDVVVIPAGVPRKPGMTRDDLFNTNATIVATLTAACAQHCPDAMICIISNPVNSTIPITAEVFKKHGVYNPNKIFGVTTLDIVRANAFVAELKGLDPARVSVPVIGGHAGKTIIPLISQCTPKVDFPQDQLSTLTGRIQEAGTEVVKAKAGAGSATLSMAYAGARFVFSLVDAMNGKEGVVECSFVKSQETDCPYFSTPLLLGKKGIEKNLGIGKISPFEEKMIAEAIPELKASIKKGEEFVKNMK
Description: In vitro refolding experiments. Refolding assays of pig heart mitochondrial malate dehydrogenase (mtMDH; Boehringer-Mannheim) and aggregation protection were carried out essentially as described (Peres Ben-Zvi, A. P., Chatellier, J., Fersht, A. R. & Goloubinoff, P. (1998) Proc. Natl. Acad. Sci. U.S.A. 95, 15275-15280). The concentrations of MC7 used were between 8-16 μM (reporter to protomer).

GroES = GroES (Escherichia coli, UniProt P0A6F9); conditions: ELISA; proteins coated at 10 μg/mL, GroES at 10 μg/mL, 25° C.
Sequence of GroES (P0A6F9 whole entry): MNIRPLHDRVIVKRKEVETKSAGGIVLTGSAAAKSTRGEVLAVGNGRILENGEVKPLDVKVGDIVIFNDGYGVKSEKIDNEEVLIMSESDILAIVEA
Description: GroES binding and competition assays by ELISA (enzyme-linked immunosorbant assay). Proteins were coated onto plastic microtitre plates (Maxisorb, Nunc) overnight at 4° C. at a concentration of 10 μg/mL in carbonate buffer (50 mM NaHCO3, pH 9.6). Plates were blocked for 1 hour at 25° C. with 2% Marvel in PBS (phosphate buffered saline: 25 mM NaH2PO4, 125 mM NaCl, pH 7.0). GroES, at 10 μg/mL in 100 μL of 10 mM Tris-HCl, 200 mM KCl, pH 7.4, were bound at 25° C. for 1 hour. Bound GroES were detected with rabbit anti-GroES antibodies (Sigma) followed by anti-rabbit immunoglobulins horseradish peroxidase conjugated antibodies (Sigma).

bacteriophage λ (b2cI) = test: Growth (plaque formation) of bacteriophage λ at 30° C. in transformed wild-type and groEL mutant strains; type: cell-based, E. coli
Text: Bacterial and bacteriophage strains. The E. coli strains used in this study were: C41(DE3), a mutant of BL21(DE3) capable of expressing toxic genes (Miroux, B. & Walker, J. E. (1996) J. Mol. Biol. 260, 289-298); SV2 (B178groEL44), SV3 (B178groEL59) and SV6 (B178groEL673): isogenic strains carrying temperature-sensitive alleles of groEL; SV1(=B178) (Georgopoulos, C., Hendrix, R. W., Casjens, S. R. & Kaiser, A. D. (1973) J. Mol. Biol. 76, 45-60), AI90 (ΔgroEL::kan^R) [pBAD-EL] (Ivic, A., Olden, D., Wallington, E. J. & Lund, P. A. (1997) Gene 194, 1-8), and TG1 (Gibson, T. J. (1984) Ph.D. thesis, University of Cambridge, U.K). Bacteriophage λb2cI (Zeilstra-Ryalls, J., Fayet, O., Baird, L. & Georgopoulos, C. (1993) J. Bacteriol. 175, 1134-1143) was used according to standard methods (Arber, W., Enquist, L., Hohn, B., Murray, N. E. & Murray, K. (1983) in Lambda II., ed. R. W. Hendrix, J. W. r., F. W. Stahl and R. A. Weisberg (Cold Spring Harbor Laboratory, Cold Spring Harbor, N.Y.), pp. 433-466); plaque formation was assayed at 30° C. T4D0, a derivative of bacteriophage T4 (Zeilstra-Ryalls, J., Fayet, O., Baird, L. & Georgopoulos, C. (1993) J. Bacteriol. 175, 1134-1143), was used according to standard methods (Karam, J. D. (1994) Molecular biology of bacteriophage T4. (American Society for Microbiology, Washington, D.C.)); plaque formation was assayed at 37° C.
Bacteriophage λ requires the chaperonins GroES and GroEL for protein folding during morphogenesis; bacteriophage T4 requires GroEL and Gp31, the latter being encoded by the bacteriophage genome (Zeilstra-Ryalls, J., Fayet, O. & Georgopoulos, C. (1991) Annu. Rev. Microbiol. 45, 301-325). Nine groE alleles which fail to support λ growth have been sequenced (Zeilstra-Ryalls, J., Fayet, O., Baird, L. & Georgopoulos, C. (1993) J. Bacteriol. 175, 1134-1143). We examined the ability of MC7, over-expressed from the constitutive tet promoter on a high-copy number vector (see FIG. 2), to complement three mutant groEL alleles for plaque formation by λ (b2cI) at 30° C. (Table 3) and T4 at 37° C. (Table 4).

B1: GroEL(191-376): monomeric minichaperone, apical domain of GroEL residues 191 to 376, sht removed by thrombin cleavage (protein, UniProt P0A6F5 191-376, looked up, fragment)
chain: EGMQFDRGYLSPYFINKPETGAVELESPFILLADKKISNIREMLPVLEAVAKAGKPLLIIAEDVEGEALATLVVNTMRGIVKVAAVKAPGFGDRRKAMLQDIATLTGGTVISEEIGMELEKATLEDLGQAKRVVINKDTTTIIDGVGEEAAIQGRVAQIRQQIEEATSDYDREKLQERVAKLAGGV
modifications: apical domain
notes: monomeric minichaperone, apical domain of GroEL residues 191 to 376, sht removed by thrombin cleavage
**Q.** Which results are given for B1?
**A.** rate of refolding of denatured mtMDH [1]: ineffective in enhancing the refolding rate; Binding to GroES (GroES): did not detectably bind; Effect of over-expression on plaque formation by bacteriophage λ in SV1 (groE^+) (in words) (bacteriophage λ (b2cI)): had no effect on plaque counts
